From the supplement of paper PMC12764529
± gives the half width of the 95% confidence interval.

How the values were obtained:
[1] = folding stability dG unfold from chymotrypsin proteolysis; higher = more stable
Outline: (§1)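 Designed mini-proteins with no cysteine and under 80 residues were kept only if AlphaFold2 dimer inter-PAE was above 15. In a PA-tagged cDNA display construct, they were digested with trypsin and chymotrypsin and then sequenced. K50 was inferred by Bayesian fitting of counts, and unfolding free energy was derived per protease or combined against a sequence-predicted unfolded-state K50 and a shared folded-state K50.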

[2] = folding stability dG unfold (combined trypsin and chymotrypsin); higher = more stable
Outline: as §1

[3] = folding stability dG unfold from trypsin proteolysis; higher = more stable
Outline: as §1

Row | Sequence | folding stability dG unfold [1] [kcal/mol] | folding stability dG unfold [2] [kcal/mol] | folding stability dG unfold [3] [kcal/mol]
1 | SAGGSAMITLEDIKALGPDNPIRTFPETGLVFVERPGELTLYKFDPKTNTVTKLKTFNSPEEKEKLSAGGSA [r15_6_JUSTAS] | 1.15 ± 0.083 | 0.863 ± 0.069 | 0.405 ± 0.035
2 | SAGGSAGGSAKAVEFYFPAEEYTVEEIIDRLVKELGVPKENIKLAKVEPLENGELKVIVEIPSAGGSAGGSA [r18_118_TrMRF] | 3.21 ± 0.12 | 3.1 ± 0.092 | 2.82 ± 0.11
3 | SAGGEVKITVEKKGDGTVTVTITVKAKSLEDLLKALESLPGVEITKVEIEKDKETNEYTIRVTIKVKPSAGG [r13_796_TrROS_Hall] | 4.07 ± 0.11 | 3.64 ± 0.15 | 2.67 ± 0.068
4 | SAGGSAGGENNIEVYYVEVKVPDPSIPLSVVLEKLPLPPEFLTVTPVEVKPPDGTVLIAIYRDSSAGGSAGG [r6_955_TrMRF] | -0.0815 ± 0.14 | 0.409 ± 0.089 | 0.516 ± 0.02
5 | SAGGGALSPEEALGKPVTALVEVGGKPYLATYTLKPTPDGWLLEVTVYDPSTGTPTTRTLDWDDVEFESAGG [r13_289_TrMRF] | 2.232 ± 0.022 | 1.87 ± 0.04 | 1.09 ± 0.025
6 | SAGGSAMFMFELTIPPNAKIPPGYKLKIRFPNGKEEEYKFNNGPIKIWFYMDPDGNIQLDLEVEKKSAGGSA [r15_992_TrROS] | 4.9 ± 0.14 | 4.35 ± 0.15 | 2.97 ± 0.09
7 | SAKIKVEIVEIDEKTGTIKIKAEIELPDGTKIELEATIKIEPVEVEKKEVTDKNGKKITVTKIKIKLPEKSA [r9_610_TrROS_Hall] | 2.52 ± 0.24 | 2.59 ± 0.71 | 2.05 ± 0.5
8 | SAGGSAGGSAGPYKVKVTLKNGEVLEFTIPEEFKDLKEVKIDLPEELKENIVKVEIEPLESAGGSAGGSAGG [r17_528_TrMRF] | 3.199 ± 0.02 | 2.95 ± 0.059 | 2.56 ± 0.1
9 | SAGGSAGGSAGKEKEIIIKVKVTKDKNGKYKIDIEELKKLFPNVKITEIKDNYIKIKVKKSAGGSAGGSAGG [r11_771_TrROS_Hall] | 2.11 ± 0.13 | 1.75 ± 0.31 | 1.63 ± 0.1
10 | SAGGSAGGSAGMRLVTFTVPGSAISVSTPGGATVVSVEKLPGDLVRVTVEIPEGAPPGLQSAGGSAGGSAGG [r17_48_JUSTAS] | 1.76 ± 0.029 | 1.56 ± 0.046 | 1.12 ± 0.013
11 | KIWIPNASWSQIKNIIRNAIKDGKERTIWIPMDPNMKPNIIDYLKDLPGIKDVEPYPNGWVKIEIDKAELKS [r1_324_TrROS] | 3.23 ± 0.076 | 2.81 ± 0.18 | 2 ± 0.059
12 | SAGGSAGGSAGMPTLKIKVLVRNEETGEWQEVEIELPEGMTLEELLAALPPEQVERVEPVSAGGSAGGSAGG [r11_386_TrROS_Hall] | 3.07 ± 0.059 | 2.85 ± 0.073 | 2.42 ± 0.15
13 | SAGPYYIITVTIPLPNLSPDLQEDFPGQKVTFMFIVDPGMDMEQKRQIKEELRDFGIKDVDIMPADDIKSAG [r5_60_TrROS] | 2.58 ± 0.03 | 2.2 ± 0.1 | 1.27 ± 0.026
14 | SMLIVAEGDTVTVELIATYTVVERDPDDPNRYTLRAFPLPLTFTVDPNDPEALRRFLEAAPPGFTPVIVGSA [r9_476_TrMRF] | 3.43 ± 0.039 | 3.17 ± 0.13 | 2.62 ± 0.092
15 | SAGGSAGGSAKETLRMELELEIDGVVVRVEAEVELDPETNELHIRVKVEVEPLPPPLPPGLESAGGSAGGSA [r18_16_TrROS_Hall] | 2.53 ± 0.34 | 2.32 ± 0.33 | 1.2 ± 0.2
16 | SAGGSAMKLTAETTDPGSDRFEATIYDPSDSGGDSVVSFESEEELEAFIKNLPSSVASVSLVPTSPSAGGSA [r15_589_JUSTAS] | 0.378 ± 0.035 | 0.728 ± 0.033 | 0.983 ± 0.017
17 | SAGKAELVEVTIEGDKLTALFKIPETGGLVLAEAEFDNGIVKVKAKFYSPSGKPLGEAEFTLPASELKLSAG [r5_308_TrMRF] | 2.73 ± 0.067 | 2.48 ± 0.12 | 1.83 ± 0.1
18 | SAGGSAGGSAGGMTLTIPEEVLKKALEEGDEELLKEVVEKAGVKPEDTEVIAVTPEDLLESAGGSAGGSAGG [r7_7_JUSTAS] | 0.919 ± 0.07 | 0.822 ± 0.12 | 0.56 ± 0.072
19 | SAGGKKKKKKKIEKKVKTVTIKIKAKTKEEAKKALEELLKKKGLEVEIVKIEYDPETKEITVTVKVKPSAGG [r13_567_TrROS_Hall] | 2.32 ± 0.12 | 2.14 ± 0.085 | 1.92 ± 0.044
20 | SAGGSAGGSAGMKPGQKEEVKIPIMGMIPVDGRTFMIRFDITVKAPGAIKIELDIIPGFPSAGGSAGGSAGG [r11_551_TrROS] | 4.73 ± 0.29 | 4.23 ± 0.21 | 3.26 ± 0.16
21 | SAGGSAGGSAGGIDFPEKGFVVVVTFPDGSKAEFEVPSDRPLVLNETAGDVTVDEIREKDSAGGSAGGSAGG [r7_542_TrMRF] | -0.125 ± 0.18 | 0.458 ± 0.13 | 0.955 ± 0.14
